Experimental findings from patent US20200040059A1 are described below.

Where “and” joins values, the source holds several entries; their conditions need not be identical. Identical values can stand only once.

The target in test [1] is T1, human TIGIT, full length, expressed on transfected cells (human) (UniProt Q495A1).
T1 sequence: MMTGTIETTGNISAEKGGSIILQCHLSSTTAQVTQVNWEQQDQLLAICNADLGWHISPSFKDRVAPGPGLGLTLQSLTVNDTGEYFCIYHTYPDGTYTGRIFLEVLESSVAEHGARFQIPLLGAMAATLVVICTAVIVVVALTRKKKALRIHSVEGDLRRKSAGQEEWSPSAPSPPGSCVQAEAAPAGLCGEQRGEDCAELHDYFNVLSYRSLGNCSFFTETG
In words: flow cytometry on transfected cells.

For test [2], the target named is CD96, expressed on transfected cells (UniProt P40200). The test is described as follows: flow cytometry on transfected cells. (In flow cytometry, cells or beads pass a laser one at a time.)
The target in test [3] is T2, human CD226, full length, expressed on transfected cells (human) (UniProt Q15762).
T2 sequence: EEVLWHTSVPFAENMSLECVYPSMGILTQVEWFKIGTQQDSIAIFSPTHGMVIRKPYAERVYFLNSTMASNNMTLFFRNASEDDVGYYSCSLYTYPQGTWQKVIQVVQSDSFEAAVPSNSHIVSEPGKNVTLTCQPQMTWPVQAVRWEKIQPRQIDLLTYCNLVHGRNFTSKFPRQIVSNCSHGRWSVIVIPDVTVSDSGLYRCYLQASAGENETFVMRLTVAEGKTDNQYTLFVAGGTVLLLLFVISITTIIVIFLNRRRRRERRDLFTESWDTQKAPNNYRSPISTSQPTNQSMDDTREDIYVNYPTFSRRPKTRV
In words: flow cytometry on transfected cells.

In test [4] the target is CD112R, expressed on transfected cells (human) (UniProt Q6DKI7). In words: flow cytometry on transfected cells.
CD112R, expressed on transfected cells (human), sequence (Q6DKI7 whole entry): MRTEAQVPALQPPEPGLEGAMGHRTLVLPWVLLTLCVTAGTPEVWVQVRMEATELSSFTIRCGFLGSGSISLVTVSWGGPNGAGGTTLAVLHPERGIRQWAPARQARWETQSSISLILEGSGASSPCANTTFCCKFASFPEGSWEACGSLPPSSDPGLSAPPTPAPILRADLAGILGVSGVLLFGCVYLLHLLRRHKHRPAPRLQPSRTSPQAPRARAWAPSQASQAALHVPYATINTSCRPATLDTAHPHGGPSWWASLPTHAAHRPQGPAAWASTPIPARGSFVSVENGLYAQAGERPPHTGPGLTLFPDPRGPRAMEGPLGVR
Test [5] has as its target human CD28, full-length, expressed on transfected Expi293 cells (human) (UniProt P10747). In words: flow cytometry on CD28-expressing Expi293 cells.
A further test addresses CTLA4 (human) (UniProt P16410). The test is described as follows: flow cytometry on HEK293 cells transfected with CTLA4.
The target of the next test is PD-L1 (human) (UniProt Q9NZQ7). In words: flow cytometry on HEK293 cells transfected with PD-L1.
PD-L1 (human), sequence (Q9NZQ7 19-290 limits assumed): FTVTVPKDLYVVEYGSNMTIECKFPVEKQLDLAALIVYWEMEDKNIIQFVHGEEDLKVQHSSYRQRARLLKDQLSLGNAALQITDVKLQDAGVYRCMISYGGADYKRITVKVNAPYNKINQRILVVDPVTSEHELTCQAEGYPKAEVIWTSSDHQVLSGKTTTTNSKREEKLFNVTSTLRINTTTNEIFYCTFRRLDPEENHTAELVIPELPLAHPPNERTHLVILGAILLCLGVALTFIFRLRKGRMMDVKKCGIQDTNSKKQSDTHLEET
A further test addresses T3, TIGIT (human) (UniProt Q495A1).
T3 sequence: T1 sequence
In words: flow cytometry, cells expressing target, 25 nM.

Another test concerns the target T4, CD96 (UniProt P40200).
T4 sequence (looked up): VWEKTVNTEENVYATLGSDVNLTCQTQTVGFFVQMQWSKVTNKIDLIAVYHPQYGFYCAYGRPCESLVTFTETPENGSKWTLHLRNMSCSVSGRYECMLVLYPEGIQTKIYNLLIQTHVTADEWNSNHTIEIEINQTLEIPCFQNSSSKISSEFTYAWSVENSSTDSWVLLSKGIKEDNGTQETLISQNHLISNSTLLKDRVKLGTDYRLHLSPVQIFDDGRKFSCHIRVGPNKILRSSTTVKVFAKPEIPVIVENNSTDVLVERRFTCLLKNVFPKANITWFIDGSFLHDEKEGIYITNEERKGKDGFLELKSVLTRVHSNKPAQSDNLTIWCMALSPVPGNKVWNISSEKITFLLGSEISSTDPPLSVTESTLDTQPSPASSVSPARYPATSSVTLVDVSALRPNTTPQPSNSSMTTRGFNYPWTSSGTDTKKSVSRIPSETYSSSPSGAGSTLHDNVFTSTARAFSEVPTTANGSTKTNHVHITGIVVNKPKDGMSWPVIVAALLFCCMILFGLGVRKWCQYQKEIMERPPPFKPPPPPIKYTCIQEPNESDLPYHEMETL
In words: flow cytometry, cells expressing target, 25 nM.

Another test concerns the target CD112R (human) (UniProt Q6DKI7). In words: flow cytometry, cells expressing target, 25 nM.
Test [6] addresses human PD-L1, full length, on transfected HEK293 cells (human) (UniProt Q9NZQ7). The test is described as follows: flow cytometry, Fc fusion at 22.2 nM on HEK293 cells transfected with PD-L1.
The target in test [7] is human CD28, full length, on transfected HEK293 cells (human) (UniProt P10747). The test is described as follows: flow cytometry, Fc fusion at 66.6 nM on HEK293 cells transfected with CD28.

CTLA4 (human), sequence (P16410 36-223 limits assumed): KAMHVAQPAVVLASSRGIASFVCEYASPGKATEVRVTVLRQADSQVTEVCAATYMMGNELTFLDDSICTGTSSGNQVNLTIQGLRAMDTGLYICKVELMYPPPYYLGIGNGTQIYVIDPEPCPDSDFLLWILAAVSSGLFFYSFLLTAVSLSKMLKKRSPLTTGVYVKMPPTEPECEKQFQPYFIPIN
wild-type CD155 IgV-Fc, sequence (P15151 24-139 limits assumed): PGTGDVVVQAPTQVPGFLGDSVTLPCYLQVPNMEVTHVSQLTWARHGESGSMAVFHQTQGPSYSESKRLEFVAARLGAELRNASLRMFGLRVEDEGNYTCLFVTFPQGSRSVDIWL
CD112R (human), sequence (Q6DKI7 whole entry, the tested form may be a part): as the sequence (Q6DKI7 whole entry) above
human PD-L1, full length, on transfected HEK293 cells (human), sequence (Q9NZQ7 19-290 limits assumed): as the sequence (Q9NZQ7 19-290 limits assumed) above

As for “CD155 variant T45Q, S52Q IgV-Fc (from UniProt P15151 24-139) (Fc fusion)”, the MFI at 100 nM stood at 4810 in test [1], 2450 in [2], 5790 in test [3] and 1770 in [4].

Take “CD155 variant S52Q IgV-Fc (from UniProt P15151 24-139) (Fc fusion)”: the MFI at 100 nM in [1] is 2290; in test [2], 1820; in [3], 2020; in test [4] it was 1790.

As to “CD155 variant Q62Y IgV-Fc (from UniProt P15151 24-139) (Fc fusion)”, the MFI at 100 nM is 2530 in test [1], 1830 in test [2], 2620 in [3] and 1920 in [4].

In [5], “CD80 variant M38V/T41D/M43I/W50G/D76G/V83A/K89E/T120S/T130A ECD-Fc fusion (from UniProt P33681 35-242)” showed an MFI of 5 MFI.

Regarding “CD80 IgV-Fc M47L/V68A (from UniProt P33681 35-141) (Fc fusion)”, the MFI at 66.6 nM with CTLA4 (human) is 74200 MFI.

In turn, “CD80 IgV-Fc L70P/F92S (from UniProt P33681 35-141) (Fc fusion)” showed an MFI at 66.6 nM with CTLA4 (human) of 4040 MFI. This substance also registered an MFI at 22.2 nM in the test with PD-L1 (human) of 6170 MFI.

As to “CD155 variant S42W IgV-Fc (from UniProt P15151 24-139) (Fc fusion)”, the MFI at 100 nM in [1] came to 2430; in [2], 2560; in [3], 2130; in test [4] it was 2330.

In the test with CTLA4 (human), “CD80 IgV-Fc E35D/M47I (from UniProt P33681 35-141) (Fc fusion)” returned an MFI at 66.6 nM of 354000 MFI. Moreover, the MFI at 22.2 nM with PD-L1 (human) came out at 150000 MFI.

As to “CD155 variant S52L, L104E IgV-Fc (from UniProt P15151 24-139) (Fc fusion)”, the MFI at 100 nM in test [1] is 4320; in test [2], 1830; in test [3], 2210.

Regarding “CD155 variant L104Q IgV-Fc (from UniProt P15151 24-139) (Fc fusion)”, the MFI at 100 nM in test [1] amounted to 10300; in test [2], 1540; in test [3], 3790; in test [4], 2120.

“CD80 IgV-Fc N55D/K86M (from UniProt P33681 35-141) (Fc fusion)” had an MFI at 66.6 nM in the test with CTLA4 (human) of 3540 MFI. In the test with PD-L1 (human), this substance registered an MFI at 22.2 nM of 5090 MFI.

As to “CD155 variant T45Q, S52L, V57L, L104E IgV-Fc (from UniProt P15151 24-139) (Fc fusion)”, the MFI at 100 nM is 2860 in [1], 1530 in test [2], 5940 in test [3] and 1500 in [4].

As to “CD155 variant S42N, L104Q, G111R IgV-Fc (from UniProt P15151 24-139) (Fc fusion)”, the MFI at 100 nM in test [1] came out at 2430; in test [2], 1960; in test [3], 2310; in [4], 1850.

Regarding “CD155 variant IgV-Fc V9L, P18L, M55V, S69L, L79P, A81E, F91S, T107M (from UniProt P15151 24-139) (Fc fusion)”, the MFI at 25 nM worked out at 58700 MFI with TIGIT (human), 67400 MFI with CD96 and 920 MFI with CD112R (human).

In the case of “CD80 IgV-Fc V22L/M38V/M47T/A71D/L85M (from UniProt P33681 35-141) (Fc fusion)”, in the test with CTLA4 (human), the MFI at 66.6 nM came to 175000 MFI. In addition, the MFI at 22.2 nM in the test with PD-L1 (human) is 6140 MFI.

As for “CD155 variant L104E IgV-Fc (from UniProt P15151 24-139) (Fc fusion)”, the MFI at 100 nM in test [1] turned out to be 3140; in test [2], 1560; in test [3] it was 2260; in test [4] it was 1800.

“CD155 variant S52M, L104Q IgV-Fc (from UniProt P15151 24-139) (Fc fusion)”: the MFI at 100 nM is 2670 in test [1], 1630 in [2], 2250 in test [3] and 1710 in test [4].

Turning to “CD155 variant S52R, Q62F, L104Q, G111R IgV-Fc (from UniProt P15151 24-139) (Fc fusion)”, the MFI at 100 nM turned out to be 2970 in [1], 2360 in [2], 3170 in test [3] and 1730 in test [4].

On to “CD155 variant S42G IgV-Fc (from UniProt P15151 24-139) (Fc fusion)”, for which the MFI at 100 nM in test [1] worked out at 4840; in test [2], 1700; in test [3], 2450; in test [4], 1820.

The substance “CD80 IgV-Fc M43I/C82R (from UniProt P33681 35-141) (Fc fusion)” registered an MFI at 66.6 nM with CTLA4 (human) of 3640 MFI. This substance also came in with an MFI at 22.2 nM with PD-L1 (human) of 7400 MFI.

Turning to “CD155 variant S52L IgV-Fc (from UniProt P15151 24-139) (Fc fusion)”, the MFI at 100 nM came out at 2220 in test [1], 2040 in test [2], 2680 in [3] and 2040 in test [4].

On to “CD155 variant T45Q, S52R, G111R IgV-Fc (from UniProt P15151 24-139) (Fc fusion)”, for which the MFI at 100 nM in test [1] is 4090; in test [2], 2340; in [3], 2080; in [4], 1790.

Consider “wild-type CD155 IgV-Fc (from UniProt P15151 24-139) (Fc fusion)”, for which the MFI at 100 nM in [1] was 2180 and 4690; in [2], 1890 and 1680 and 3270; in test [3], 2320 and 2370 and 4690; in test [4], 2170 and 1740 and 2940.

As for “CD155 variant Q62F IgV-Fc (from UniProt P15151 24-139) (Fc fusion)”, the MFI at 100 nM in [1] turned out to be 2210; in test [2] it was 2760; in test [3], 2570; in test [4] it was 2710.

Consider “CD155 variant S52E IgV-Fc (from UniProt P15151 24-139) (Fc fusion)”, for which the MFI at 100 nM came to 2660 in [1], 1800 in test [2], 2600 in test [3] and 1900 in test [4].

For the substance “CD155 variant T45Q, S52L, L104E, G111R IgV-Fc (from UniProt P15151 24-139) (Fc fusion)”, the MFI at 100 nM in test [1] was determined as 2290; in test [2], 1580; in test [3] it was 2390; in test [4], 1740.

Turning to “CD155 variant S42N, S52Q, Q62F IgV-Fc (from UniProt P15151 24-139) (Fc fusion)”, the MFI at 100 nM in test [1] was found to be 2400; in test [2], 1740; in test [3], 2150; in test [4], 1860.

Turning to “CD155 variant S52R IgV-Fc (from UniProt P15151 24-139) (Fc fusion)”, the values for the MFI at 100 nM in test [1], in test [2] and in test [4] were 4400, 4850 and 2740, respectively.

“ICOSL variant N52S/S130G/Y152C ECD-Fc fusion (from UniProt O75144 19-256)” registered an MFI in [5] of 24 MFI.

As to “CD80 variant IgV-Fc E35D (from UniProt P33681 35-141) (Fc fusion)”, the MFI at 22.2 nM in test [6] turned out to be 25500 MFI. In addition, in [7], the MFI at 66.6 nM amounted to 3450 MFI.

Consider “CD155 variant S42A, S52L, L104E, G111R IgV-Fc (from UniProt P15151 24-139) (Fc fusion)”, for which the MFI at 100 nM in [1] was found to be 2260; in test [3], 1890.
